Patent US20020146797

Test system: RR-Src peptide

Substance | KM (mM) for protein substrate RR-Src, ATP saturated | KM (mM) for protein substrate RR-Src, N^6-(cyclopentyl)ATP saturated
GST-XD4 (glutathione S-transferase fusion of the XD4 fragment of v-Src, wild-type catalytic domain) | 2.6 mM | 
GST-XD4(V323A, I338A) | 3.1 mM | 2.1 mM
